Laboratory results reported in patent publication US20250197461A1, “Insect-derived short peptide for improving abscisic acid (ABA) content in cruciferous plant” (Gannan Normal University, priority 2023, published 2025).

Columns and labels:
[1] = molecular target: T1, zeaxanthin epoxidase aba1 (Arabidopsis thaliana, UniProt Q9FGC7); experiment: Yeast two-hybrid interaction of GSS1 and its variants with aba1; format: binding; settings: Y2HGold yeast, TDO/QDO with x-α-gal
T1 construct: expressed in transfected cells; host or cells: Y2HGold yeast (Saccharomyces cerevisiae)
T1 sequence (Q9FGC7 60-667): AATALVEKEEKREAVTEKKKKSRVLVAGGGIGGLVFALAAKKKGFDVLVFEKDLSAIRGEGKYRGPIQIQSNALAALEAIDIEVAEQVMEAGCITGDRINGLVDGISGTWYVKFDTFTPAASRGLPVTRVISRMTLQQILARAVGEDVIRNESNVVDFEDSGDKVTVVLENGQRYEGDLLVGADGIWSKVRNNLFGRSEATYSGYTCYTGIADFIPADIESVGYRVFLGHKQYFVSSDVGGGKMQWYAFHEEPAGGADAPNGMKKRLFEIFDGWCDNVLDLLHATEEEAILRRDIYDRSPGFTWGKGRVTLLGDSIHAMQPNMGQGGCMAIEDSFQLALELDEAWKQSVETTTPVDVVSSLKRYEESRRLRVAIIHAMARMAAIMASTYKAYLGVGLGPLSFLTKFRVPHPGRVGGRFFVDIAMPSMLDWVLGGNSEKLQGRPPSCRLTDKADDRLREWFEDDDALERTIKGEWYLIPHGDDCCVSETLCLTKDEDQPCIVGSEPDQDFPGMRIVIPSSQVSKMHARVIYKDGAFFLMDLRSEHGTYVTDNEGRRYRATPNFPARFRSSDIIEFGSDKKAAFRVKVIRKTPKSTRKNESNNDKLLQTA
Text: A Y2HGold yeast transformant containing the correct pGBKT7-GSS1 bait plasmid was used as a recipient strain to prepare competent cells, and a library plasmid extracted from the yeast library was transferred into the competent cells, and coated on the SD-Trp-Leu-His+5 mM3AT plate. […]

[2] = tested on: Plutella xylostella larvae; experiment: Plutella xylostella larvae fed on Arabidopsis thaliana treated with short peptide; format: in vivo; settings: third-instar larvae fed on treated Arabidopsis thaliana for 3 days
Text: (5) Biological Experimental Observation after GSS-PI Short Peptide Treatment with Arabidopsis thaliana. • 1) 60 newly molted third-instar larvae fed on artificial feed were divided into 3 groups, and 20 larvae in each group were fed on Arabidopsis thaliana plants treated with GSS-P1 short peptide or GFP control short peptide; • 2) In order to prevent plants from being damaged mechanically or influenced by external factors, a simple interactive biological observation device for insect-plant interaction was used to eliminate potential interference factors; • 3) After 3 days, the simple interactive biological observation device was opened, and the number of larvae (4th instar larvae) was observed and counted, the number of larvae surviving was recorded, and divided by the initial number of 20 larvae to obtain the daily survival rate of larvae.

Sequence: PDYKQKLRDSKAWESLETIGIPLDADVM (insect-derived short peptide) [GSS1-PI]
- interaction with aba1 (yeast two-hybrid) [1]: interacted with aba1
- mortality rate of larvae [2]: about 70%
